The record followed here is US20230183713A1, “SITE-SPECIFIC RECOMBINASES FOR EFFICIENT AND SPECIFIC GENOME EDITING” (TECHNISCHE UNIVERSITÄt DRESDEN, published 2023).

Changes are numbered by the printed parent chain. Names and notes keep the numbering of the source.

Series [1] concerns the target T1, Cre recombinase monomer with K201R mutation.
T1 chain: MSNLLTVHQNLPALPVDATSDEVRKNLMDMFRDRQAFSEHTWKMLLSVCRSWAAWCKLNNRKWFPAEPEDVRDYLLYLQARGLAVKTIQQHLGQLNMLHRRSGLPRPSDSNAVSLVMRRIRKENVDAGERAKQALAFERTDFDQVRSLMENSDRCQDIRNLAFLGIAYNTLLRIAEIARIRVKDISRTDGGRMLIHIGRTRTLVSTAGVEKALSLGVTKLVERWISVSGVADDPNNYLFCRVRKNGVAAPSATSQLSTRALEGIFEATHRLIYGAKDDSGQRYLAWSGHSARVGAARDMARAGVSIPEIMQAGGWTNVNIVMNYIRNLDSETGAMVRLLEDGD

Series [2] addresses T2, Cre recombinase monomer with K201N mutation.
T2 chain: T1 chain with R201N

Series [3] deals with T3, Cre recombinase monomer with W315N mutation.
T3 chain: T1 chain with R201K, W315N

Series [4] deals with T4, Cre recombinase monomer with Q311R mutation.
T4 chain: T1 chain with R201K, Q311R

B1: Cre recombinase monomer with E129R mutation (protein)
chain: T1 chain with E129R, R201K
Take B1: the “Median dimer activity (recombination on loxP)” value in series [1] turned out to be 26%; in series [2] it was 35%; in series [3], 30%; in series [4], 93%.
